Results: patent US20140274782A1, “AFFINITY REAGENTS AND METHODS FOR DETECTION, PURIFICATION, AND PROTEOMIC ANALYSIS OF METHYLATED PROTEINS” (The Board of Trustees of the Leland Stanford Junior …, priority 2013, published 2014)

T1: G9a and GLP (Homo sapiens, UniProt Q96KQ7+Q9H9B1)
T1 sequence (Q96KQ7 2-1210 limits assumed): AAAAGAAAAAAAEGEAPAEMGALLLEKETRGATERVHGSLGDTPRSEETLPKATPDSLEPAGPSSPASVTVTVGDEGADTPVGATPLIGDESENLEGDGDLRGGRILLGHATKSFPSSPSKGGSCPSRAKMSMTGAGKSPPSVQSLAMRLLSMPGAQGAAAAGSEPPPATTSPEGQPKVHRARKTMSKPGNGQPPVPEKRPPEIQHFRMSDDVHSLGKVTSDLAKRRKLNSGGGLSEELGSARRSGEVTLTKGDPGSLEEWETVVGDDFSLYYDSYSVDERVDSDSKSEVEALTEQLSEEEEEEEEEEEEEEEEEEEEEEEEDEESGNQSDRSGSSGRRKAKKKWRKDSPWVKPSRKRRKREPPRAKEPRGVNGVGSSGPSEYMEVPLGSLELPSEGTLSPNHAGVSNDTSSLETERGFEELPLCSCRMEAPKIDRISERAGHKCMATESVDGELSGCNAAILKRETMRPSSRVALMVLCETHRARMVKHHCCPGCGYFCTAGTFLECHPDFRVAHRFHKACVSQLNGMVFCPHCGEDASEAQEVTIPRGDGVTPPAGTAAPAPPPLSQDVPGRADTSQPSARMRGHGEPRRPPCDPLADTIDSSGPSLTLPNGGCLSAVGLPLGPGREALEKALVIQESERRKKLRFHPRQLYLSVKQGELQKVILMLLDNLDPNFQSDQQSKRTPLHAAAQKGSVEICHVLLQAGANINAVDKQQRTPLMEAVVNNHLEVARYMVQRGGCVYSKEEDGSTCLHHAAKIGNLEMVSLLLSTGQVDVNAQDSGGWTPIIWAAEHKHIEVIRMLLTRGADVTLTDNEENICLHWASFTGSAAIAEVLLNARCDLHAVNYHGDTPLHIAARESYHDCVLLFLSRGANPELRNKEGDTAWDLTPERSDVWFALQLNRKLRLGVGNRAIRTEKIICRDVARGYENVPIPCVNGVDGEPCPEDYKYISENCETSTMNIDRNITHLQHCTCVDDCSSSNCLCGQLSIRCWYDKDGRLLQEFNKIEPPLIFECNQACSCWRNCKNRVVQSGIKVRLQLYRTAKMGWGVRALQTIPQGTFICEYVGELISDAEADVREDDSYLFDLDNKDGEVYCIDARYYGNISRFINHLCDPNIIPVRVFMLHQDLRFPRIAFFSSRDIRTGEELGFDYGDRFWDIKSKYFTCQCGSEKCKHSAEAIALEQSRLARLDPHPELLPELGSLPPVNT
T1 sequence (Q9H9B1 2-1298 limits assumed): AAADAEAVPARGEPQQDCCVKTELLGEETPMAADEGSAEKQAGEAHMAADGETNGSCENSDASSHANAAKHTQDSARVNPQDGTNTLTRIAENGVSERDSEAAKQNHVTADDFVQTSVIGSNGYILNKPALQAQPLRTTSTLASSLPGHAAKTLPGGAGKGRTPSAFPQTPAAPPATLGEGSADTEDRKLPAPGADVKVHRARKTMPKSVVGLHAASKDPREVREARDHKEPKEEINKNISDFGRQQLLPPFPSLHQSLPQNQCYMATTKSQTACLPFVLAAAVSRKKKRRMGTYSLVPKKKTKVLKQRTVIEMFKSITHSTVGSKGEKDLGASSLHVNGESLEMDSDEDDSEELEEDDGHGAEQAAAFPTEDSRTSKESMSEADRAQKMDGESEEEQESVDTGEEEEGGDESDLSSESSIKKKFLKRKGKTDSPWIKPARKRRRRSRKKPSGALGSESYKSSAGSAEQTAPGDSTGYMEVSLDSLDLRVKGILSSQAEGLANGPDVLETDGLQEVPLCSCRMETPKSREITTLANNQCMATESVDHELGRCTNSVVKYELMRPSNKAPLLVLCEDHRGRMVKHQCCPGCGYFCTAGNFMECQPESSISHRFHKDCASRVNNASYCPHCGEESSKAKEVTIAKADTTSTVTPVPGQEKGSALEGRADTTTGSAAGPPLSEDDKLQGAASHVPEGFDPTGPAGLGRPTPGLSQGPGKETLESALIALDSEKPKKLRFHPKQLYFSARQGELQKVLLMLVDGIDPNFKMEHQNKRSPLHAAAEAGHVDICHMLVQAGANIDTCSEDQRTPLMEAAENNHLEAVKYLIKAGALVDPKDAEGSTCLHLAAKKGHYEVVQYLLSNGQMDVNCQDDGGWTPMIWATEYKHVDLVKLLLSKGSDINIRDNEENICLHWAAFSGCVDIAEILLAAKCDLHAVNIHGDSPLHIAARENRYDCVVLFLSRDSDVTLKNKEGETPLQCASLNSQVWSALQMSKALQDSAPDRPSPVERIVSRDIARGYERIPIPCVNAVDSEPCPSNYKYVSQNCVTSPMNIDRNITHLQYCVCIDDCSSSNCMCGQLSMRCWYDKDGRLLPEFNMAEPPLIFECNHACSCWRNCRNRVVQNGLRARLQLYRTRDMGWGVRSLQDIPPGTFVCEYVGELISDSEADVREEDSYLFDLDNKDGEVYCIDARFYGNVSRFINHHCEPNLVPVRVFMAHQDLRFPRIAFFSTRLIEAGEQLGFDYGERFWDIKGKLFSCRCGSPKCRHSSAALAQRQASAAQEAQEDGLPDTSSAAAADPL


How the values were obtained:
G9a and GLP = molecular target: T1, G9a and GLP; test: Triple SILAC pull-down after UNC0638 treatment of 293T cells, DMSO/UNC0638 ratio of protein captured by 3×MBT; format: cell-based; design: endogenous in cells; host or cells: HEK 293T; conditions: for Relative to UNC0638 UNC Heavy / Relative to UNC0638 UNC Light: SILAC ratio DMSO/UNC0638 of protein pulled down with 3xMBT; for Relative to UNC0638 UNC Heavy: UNC0638 in heavy SILAC media; for Relative to UNC0638 UNC Light: UNC0638 in light SILAC media; for Relative to UNC0638 Average: average of UNC Light and UNC Heavy experiments;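 for all read-outs here: mass spectrometry (Q-Exactive) SILAC quantitation, DMSO/UNC0638 ratio computed after subtracting 3×MBTD355N mutant pull-down background, only proteins with at least twofold 3×MBT over mutant signal considered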
3×MBT domain of L3MBTL1 = test: Triple SILAC pull-down, 3xMBT/3xMBTD355N ratio (cytoplasmic, nuclear and chromatin fractions of 293T cells); format: binding, human; conditions: SILAC ratio, pull-down 3xMBT vs 3xMBTD355N; for 3xMBT/D355N UNC Heavy: experiment with UNC0638 in heavy SILAC media; for 3xMBT/D355N UNC Light: experiment with UNC0638 in light SILAC media;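 for all read-outs here: proteins quantified with MaxQuant, requiring at least two unique peptides and quantification in both label directions, normalized to the mean of proteins from a digested loading control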

Molecule | Relative to UNC0638 UNC Heavy (G9a and GLP) [log base 2] | Relative to UNC0638 UNC Light (G9a and GLP) [log base 2] | Relative to UNC0638 Average (G9a and GLP) [log base 2] | 3xMBT/D355N UNC Heavy (3×MBT domain of L3MBTL1) [log base 2] | 3xMBT/D355N UNC Light (3×MBT domain of L3MBTL1) [log base 2]
HNRNPF (protein, UniProt P52597 1-415, looked up) Heterogeneous nuclear …: MMLGPEGGEGFVVKLRGLPWSCSVEDVQNFLSDCTIHDGAAGVHFIYTREGRQSGEAFVELGSEDDVKMALKKDRESMGHRYIEVFKSHRTEMDWVLKHSGPNSADSANDGFVRLRGLPFGCTKEEIVQFFSGLEIVPNGITLPVDPEGKITGEAFVQFASQELAEKALGKHKERIGHRYIEVFKSSQEEVRSYSDPPLKFMSVQRPGPYDRPGTARRYIGIVKQAGLERMRPGAYSTGYGGYEEYSGLSDGYGFTTDLFGRDLSYCLSGMYDHRYGDSEFTVQSTTGHCVHMRGLPYKATENDIYNFFSPLNPVRVHIEIGPDGRVTGEADVEFATHEEAVAAMSKDRANMQHRYIELFLNSTTGASNGAYSSQVMQGMGVSAAQATYSGLESQSVSGCYGAGYSGQNSMGGYD | 0.28 | −0.02 | 0.13 | 1.66 | 2.25
CAPRIN1 (protein, UniProt Q14444 2-709, looked up) Caprin-1: PSATSHSGSGSKSSGPPPPSGSSGSEAAAGAGAAAPASQHPATGTGAVQTEAMKQILGVIDKKLRNLEKKKGKLDDYQERMNKGERLNQDQLDAVSKYQEVTNNLEFAKELQRSFMALSQDIQKTIKKTARREQLMREEAEQKRLKTVLELQYVLDKLGDDEVRTDLKQGLNGVPILSEEELSLLDEFYKLVDPERDMSLRLNEQYEHASIHLWDLLEGKEKPVCGTTYKVLKEIVERVFQSNYFDSTHNHQNGLCEEEEAASAPAVEDQVPEAEPEPAEEYTEQSEVESTEYVNRQFMAETQFTSGEKEQVDEWTVETVEVVNSLQQQPQAASPSVPEPHSLTPVAQADPLVRRQRVQDLMAQMQGPYNFIQDSMLDFENQTLDPAIVSAQPMNPTQNMDMPQLVCPPVHSESRLAQPNQVPVQPEATQVPLVSSTSEGYTASQPLYQPSHATEQRPQKEPIDQIQATISLNTDQTTASSSLPAASQPQVFQAGTSKPLHSSGINVNAAPFQSMQTVFNMNAPVPPVNEPETLKQQNQYQASYNQSFSSQPHQVEQTELQQEQLQTVVGTYHGSPDQSHQVTGNHQQPPQQNTGFPRSNQPYYNSRGVSRGGSRGARGLMNGYRGPANGFRGGYDGYRPSFSNTPNSGYTQSQFSAPRDYSGYQRDGYQQNFKRGSGQSGPRGAPRGRGGPPRPNRGMPQMNTQQVN | −1.08 | 1.34 | 0.13 | 2.45 | 4.36
LRWD1 (protein, UniProt Q9UFC0 1-647, looked up) Leucine-rich repeat and WD …: MGPLSARLLMQRGRPKSDRLGKIRSLDLSGLELLSEHLDPKLLCRLTQLQELDLSNNHLETLPDNLGLSHLRVLRCANNQLGDVTALCQFPKLEELSLEGNPFLTVNDNLKVSFLLPTLRKVNGKDASSTYSQVENLNRELTSRVTAHWEKFMATLGPEEEAEKAQADFVKSAVRDVRYGPESLSEFTQWRVRMISEELVAASRTQVQKANSPEKPPEAGAAHKPRARLAALKRPDDVPLSLSPSKRACASPSAQVEGSPVAGSDGSQPAVKLEPLHFLQCHSKNNSPQDLETQLWACAFEPAWEEGATSQTVATCGGEAVCVIDCQTGIVLHKYKAPGEEFFSVAWTALMVVTQAGHKKRWSVLAAAGLRGLVRLLHVRAGFCCGVIRAHKKAIATLCFSPAHETHLFTASYDKRIILWDIGVPNQDYEFQASQLLTLDTTSIPLRLCPVASCPDARLLAGCEGGCCCWDVRLDQPQKRRVCEVEFVFSEGSEASGRRVDGLAFVNEDIVASKGSGLGTICLWSWRQTWGGRGSQSTVAVVVLARLQWSSTELAYFSLSACPDKGIVLCGDEEGNVWLYDVSNILKQPPLLPAALQAPTQILKWPQPWALGQVVTKTMVNTVVANASFTYLTALTDSNIVAIWGRM | 0.01 | 0.25 | 0.13 | 2.59 | 2.64
SRBD1 (protein, UniProt Q8N5C6 1-995, looked up) S1 RNA-binding …: MSSLPRRAKVQVQDVVLKDEFSSFSELSSASEEDDKEDSAWEPQKKVPRSRKQPPPKESKPKRMPRVKKNAPQISDGSEVVVVKEELNSSVAIADTALEDRKNKLDTVQTLKTAKTKQKCAAQPHTVRRTKKLKVEEETSKASNLEGESNSSETPSTSTVWGGTCKKEENDDDFTFGQSALKKIKTETYPQGQPVKFPANANSTKEEVEMNWDMVQVLSERTNIEPWVCANIIRLFNDDNTIPFIIRYRKELINNLDADSLREVQQTLEELRAVAKKVHSTIQKIKKEGKMSECLLKAMLNCKTFEELEHVSAPYKTGSKGTKAQRARQLGLEGAARALLEKPGELSLLSYIRPDVKGLSTLQDIEIGVQHILADMIAKDKDTLDFIRNLCQKRHVCIQSSLAKVSSKKVNEKDVDKFLLYQHFSCNIRNIHHHQILAINRGENLKVLTVKVNISDGVKDEFCRWCIQNRWRPRSFARPELMKILYNSLNDSFKRLIYPLLCREFRAKLTSDAEKESVMMFGRNLRQLLLTSPVPGRTLMGVDPGYKHGCKLAIISPTSQILHTDVVYLHCGQGFREAEKIKTLLLNFNCSTVVIGNGTACRETEAYFADLIMKNYFAPLDVVYCIVSEAGASIYSVSPEANKEMPGLDPNLRSAVSIARRVQDPLAELVKIEPKHIGVGMYQHDVSQTLLKATLDSVVEECVSFVGVDINICSEVLLRHIAGLNANRAKNIIEWREKNGPFINREQLKKVKGLGPKSFQQCAGFIRINQDYIRTFCSQQTETSGQIQGVAVTSSADVEVTNEKQGKKKSKTAVNVLLKPNPLDQTCIHPESYDIAMRFLSSIGGTLYEVGKPEMQQKINSFLEKEGMEKIAERLQTTVHTLQVIIDGLSQPESFDFRTDFDKPDFKRSIVCLEDLQIGTVLTGKVENATLFGIFVDIGVGKSGLIPIRNVTEAKLSKTKKRRSLGLGPGERVEVQVLNIDIPRSRITLDLIRVL | −0.13 | 0.37 | 0.12 | 1.02 | 1.29
